Experimental data taken from the DeepSol protein solubility set.

Assay: soluble on expression in E. coli; label from the status in PepcDB or PDB records

Sequence	soluble on expression in E. coli
MADNYVIWFENLRMTDVERVGGKNASLGEMISQLTEKGVRVPGGFATTAEAYRAFLAHNGLSERISAALAKLDVEDVAELARVGKEIRQWILDTPFPEQLDAEIEAAWNKMVADAGGADISVAVRSSATAEDLPDASFAGQQETFLNINGLDNVKEAMHHVFASLYNDRAISYRVHKGFEHDIVALSAGVQRMVRSDSGASGVMFTLDTESGYDQVVFVTSSYGLGENVVQGAVNPDEFYVFKPTLKAGKPAILRKTMGSKHIKMIFTDKAEAGKSVTNVDVPEEDRNRFSITDEEITELAHYALTIEKHYGRPMDIEWGRDGLDGKLYILQARPETVKSQEEGNRNLRRFAINGDKTVLCEGRAIGQKVGQGKVRLIKDASEMDSVEAGDVLVTDMTDPDWEPVMKRASAIVTNRGGRTCHAAIIARELGIPAVVGCGNATELLKNGQEVTVSCAEGDTGFIYAGLLDVQITDVALDNMPKAPVKVMMNVGNPELAFSFANLPSEGIGLARMEFIINRQIGIHPKALLEFDKQDDELKAEITRRIAGYASPVDFYVDKIAEGVATLAASVYPRKTIVRMSDFKSNEYANLVGGNVYEPHEENPMLGFRGAARYVADNFKDCFALECKALKRVRDEMGLTNVEIMIPFVRTLGEAEAVVKALKENGLERGKNGLRLIMMCELPSNAVLAEQFLQYFDGFSIGSNDMTQLTLGLDRDSGLVSESFDERNPAVKVMLHLAISACRKQNKYVGICGQGPSDHPDFAKWLVEEGIESVSLNPDTVIETWLYLANELNK	soluble
MADPLSKEEDIQHRPDSPPLGLLDPSRIQNPLANDQLHQVPQQQNPSGFVMPEQPRQQPPPQTWQRTPTMSPANIFQGGSGTPGSQRSSTGTPNHQMGNPPQHQQQQFFHGESPAHSQGTPMTPQSAGMPGSNCGTPQSAGGPPTSVPYDYQQAQMQQQQHAQAMAAAAAAQQQQQQHLQQQQYAQNPQQMHDSPYRQHQMMQMHQHPGHPSQYPPGYPQQQAAQWQQQMYARQAAAQAQAQAQAQAQAQAQQRAAAQRVPVPYPPGAYPPGMPGPMTPGYPAQAPAAPRTTPGSAGPGTGPPGTPQRPQYPQGTNPQPQQAQFTYPPTQQMTPTGQPPGYPGMPGTPTFSSPAHQMFRQGQPTAPPGMRQYISPQAGQQQPTPGTPHRFAPPGPSGTTSSPHFAPGAPGADLRSPSLMSPNQQSQQHTPVLPRSLHNEMTSHGMRPIALPSQPLPQTQGTPQPILSASSLPPQSAGATQFVYRPQQPNQMNTMNQMNQMHHDVNPFPIQMNVDPELYLTGIHFHCFDSEKLFEDKLDRKNLEFMIKYHGGDIEFEASKFHERIHQITHVLVDSCRNTNVMTSLEHRKRIVSIQWIIDVMERERVELPWRIAHLPPPFNENFRPYLGKLFSLSGFDSSERAAISFMAEMMGAKITPFLARQNDLLIAKQPADKVTRAQEWKVPVVNFQWIADAYVCDEASPQKRPNVENPRYQLENPVMTNVNTSPNHIEGASQEFGAMMSCWKSQTIIADQAYEKARQNRKTLQNNTFFFPSKRLSDQAVAPTEDEIKSSRARLDEIKTHWEEHQEKMKDTPLSKEFYRVREPQARVSAWFGEGIDDEALTILKKKLEFLGGECVEKIRDATHVILISGRRSLVLLESIIRGKNIMDPEWIVDSYKQKMWLDTLDYFLHDKELEKEFAYNCKRSVLRARNKPVFEDIEFHVTRFVEPNQNDLVRLIELGGGNVHSEKPDPKYLAKCVETEQPFIIISCENDARFLSYLAGSKLPIYNVDLVLFAMLRQQIEPLPQYRIPIPIVVKTPVFRQPPPYTAPPKDQEPAASLASEPTRAADVLSENS	not soluble
MADVATKHPMEDEVKKTEASSLVGKLETDVEIKASADKFHHMFAGKPHHVSKASPGNIQGCDLHEGDWGTVGSIVFWNYVHDGEAKVAKERIEAVEPDKNLITFRVIEGDLMKEYKSFLLTIQVTPKPGGPGSIVHWHLEYEKISEEVAHPETLLQFCVEVSKEIDEHLLAEEEEVKTPETPSLVGKLETDVEIKASAEKFHHMFAGKPHHVSKASPGNIQGCDLHEGDWGQVGSIVFWNYVHGKEAKVAKERIEAVEPNKNLITFRVIDGDLMKEYKSFLLTIQVTPKLGGPGSIVHWHLEYEKISEEVAHPETLLQFCVEVSKEIDEHLLAEE	soluble
MADVKEKINLLDVIPFRSENITAEKGSDGTVTIAFPRFKYEWMRRFLLPKGMSADIHVRLEDHGTAVWELIDGKRTVRRIIEELAEHFNYEENYESRITAYITQLQKDGFVKLVIEN	not soluble
MAEAESVSVDGWDFSWLDGRATEQRPSWGYQRLMGERLARANAALDIQTGGGEVLAGAMTMPPVMVATESWPPNVAKATALLHPLGAVVVADADEPPLPFAEGAFDLVTSRHPATVWWDEIARVLRPGGTYFSQHVGHASVFELVEYFLGPQPTRPASSSRPANAADSAHRLRPVEGLPDDVGVPGVLGGLPDDVEQDPARGPA	not soluble
MAEERHHTEHIPQWKKDEIENIKELIQSHKVFGMVRIEGILATKIQKIRRDLKDVAVLKVSRNTLTERALNQLGESIPEMTRYLDNQTALIFTNESPFKLYKLLEQTKTPSPIKAGAIAPEDIIVQKGPTSFPPGPILGELQSAGIPASIDAGKVAVKETKVVCKAGEAVPQKLATMLSKLEIYPLIVGLDLRAAYDDGTIYEPELLAVDESKYFSDIIRAAQNAFNLSVNTAYPTGATIGTLLAKAYAESKSLGVNAVILEPGVMDSLLAKAHVQMTSVASEAAEKDANAVDDDLREVLGAAASAAAAATVAAPAAEEEKKEEEPEEEEEDHAEEDGMAGLGALFGLEHHHHHH	soluble
MAEHECVQLVPIFSELGSEQLDIIESIVRHHHYPAGSTLFGADDPLDSLMIVANGQVKVYQLAANGREQLLYLLQTGDIDGEAALFENQRRTSFGEALVPTDVCSIRRSDFQDLMQKYPSISINVLNVFGKRLNQLERQTTSTATESVEARLANYITETAAALKTDTFKLPLKKKDLATFLGTTPESISRKLALFERQGLITQKPGKVIEINDADQLLLTE	soluble
MAEIPLFPLSNALFPAGVLRLRVFEIRYLDMVRRCIADGSEFGVVVLEQGTEVRRPDGREVLARAGTMARIDHWEAPMPALLELACTGTGRFRLHACTQGKYGLWTGQAEPVPDDAPLEVPPELARSASALGRLIARLQREGVPPHIMPMAAPFRLDDCGWVADRWAEMLSLPPADKARLLLLPPLDRLREIDAVLAADGHALEHHHHHH	soluble
MAEKFKIIMTEALSLYIWGCNILNTEKLETLLGFYKQYKALSEYIDKKYKLSLNDLAVLDLTMKHCKDEKVLMQSFLKTAMDELDLSRTKLLVSIRRLIEKERLSKVRSSKDERKIYIYLNNDDISKFNALFEDVEQFLNI	not soluble
MAEKSCSLTEFVGTAIGDTLGLVIANVDTALLDAMKLEKRYRSIGILGARTGAGPHIMAADEAVKATNTEVVSIELPRDTKGGAGHGSLIILGGNDVSDVKRGIEVALKELDRTFGDVYGNEAGHIELQYTARASYALEKAFGAPIGRACGIIVGAPASVGVLMADTALKSANVEVVAYSSPAHGTSFSNEAILVISGDSGAVRQAVTSAREIGKTVLATLGSEPKNDRPSYI	not soluble
MAELNTHVNVKEKIYAVRSVVPNKSNNEIVLVLQQFDFNVDKAVQAFVDGSAIQVLKEWNMTGKKNNKRKRSKSKQHQGNKDAKDKVERPEAGPLQPQPPQIQNGPMNGCEKDSSSTDSANEKPALIPREKKISILEEPSKALRGVTGPNIEKSVKDLQRCTVSLTRYRVMIKEEVDSSVKKIKAAFAELHNCIIDKEVSLMAEMDKVKEEAMEILTARQKKAEELKRLTDLASQMAEMQLAELRAEIKHFVSERKYDEELGKAARFSCDIEQLKAQIMLCGEITHPKNNYSSRTPCSSLLPLLNAHAATSGKQSNFSRKSSTHNKPSEGKAANPKMVSSLPSTADPSHQTMPANKQNGSSNQRRRFNPQYHNNRLNGPAKSQGSGNEAEPLGKGNSRHEHRRQPHNGFRPKNKGGAKNQEASLGMKTPEAPAHSEKPRRRQHAADTSEARPFRGSVGRVSQCNLCPTRIEVSTDAAVLSVPAVTLVA	soluble
MAELQFPGVYVEDVGHLAFGTLKLTEKSLNFKGDKGGKSVNVTGSDIDKLKWQKLGNKPGLRVGLNDGGAHRFGGFKDTDLEKIQSFTSSNWSQSIDQSNLFIKGWNYGQAEVKGKTVEFSWEDKPIFEIPCTNVSNVIANKNEAVLEFHQNDDSKVQLMEMRFHMPIDLENEEDADKVEEFKKAVLAYAGLEAETEQPICLLTDILCTTPRGRYDIKVYPTSIALHGKTYDYKIPIKSINRLFLVPHKDGRHVYFVLSLNPPIRQGQTRYSYLIFEFGKDEEQDLELALTDEQLESSNGNLRRDMTGPIYETISILFKSICNLKITVPGRFLGSSGTPAIQCTHRQNPGLLYPMEKGFLFIHKPAMYIRFEEISSCHFARSDSGTVTRTFDFEIDLKYGGPLTFNAMEKEENNKLFDYLNKKNIKIRNSQRVENTVADSSDDEIDPYKAAVTAEGRQRDDSDDDSTDEDYDLDKDIKKKKEDKESSEGTGSEPDDEYDSGSEQDSSGTGESEPDSEQDVPSKRRKGEPKEKREKKEKREKKEGKKGKKDKDPNAPKRATSAYMQWFLASRNELKEDGDSVADVAKKGGAKWKTMSSDDKKKWEEKAEEDKSRYEKEMKEYRKNGPPSSSSKPSSSKTSKKSSGPSSSKAISKEYISDSDDSDDEEPKKKEKKAAPKEESEESNNGSDGSDESDDSD	soluble
MAELSDQEMLRYNRQIILRGFDFEGQEALKDARVLVVGLGGLGCAATQYLAGAGVGQLTLLDFDTVSVSNLQRQTLHSDATVGQPKVESARDALARINPHITITPVNARLDDDAMTSLIAGHSLVLDCTDNVSVRNQLNAGCYTAKVPLISGAAIRMEGQVTVFTYRENEPCYRCLSRLFGENALTCVEAGVMAPLIGVIGSLQAMEAIKLLAHYGQPASGKIVMYDAMTCQFREMKLMRNPGCEVCGQ	not soluble
MAESYEEWKSFALKLDEETGAQEWKFDNSSPYFDAELISYRYTLLKRYRQQHRTLDLIYLLKEGLTYDIANIGHPMLFAATHVGTKKLIEDYIEEVSQSLAYIASSECITFQRKEKIEFFENCEKAYGQPALMFSGGATLGLFHTGVCKALIEQDLMPKVLSGSSAGAIMTGMLGISASEDIQNLLNGEQFFSDAFHFRKLRELIKGNGGIADVHYLKKFLIENLGDLTFEEAFKKSGLNINVAVAPYDATENPRIMNAIMTPNVLVWSAVLASCAVPVLFPPVRLTSKRYDGEHTPYMANTKWVDGSVRSDFPQERMARLYNLNYTIASQVNPHVVPFMQDDARRFRKDVLSWPERILRRQGKVLSMGLMDFTRQRLGAISPVRRLLDHGYGVVGQRYYGDVNIIAKYSLKHYAYTLQNPRPHLFKRLQREGERATWPKISSIETHARIGKTIQHCLEVLRFEEKKQQPESYYAEALEHHHHHH	soluble
MAETDPKTVQDLTSVVQTLLQQMQDKFQTMSDQIIGRIDDMSSRIDDLEKNIADLMTQAGVEELESENKIPATQKS	not soluble
MAETVGERPESMSPKLDNATIAAQLGSLATALDEFNRNSGSQVEMSLLLQRVCDQVVDAIADADMAGISLLRDGRVVTVAYTDEAVREIDIPNFQALDGDYFGVAGTRKVVKARLGEAAARWPSVADNLDQAGMRSFLSAPLAVDEALAGTLNIYGQGDHGFSELDAVVLLVYTTAIEGLLRSARSVELARNEVSGLTKAMKSRAVIEQAKGIVMALRGVPADQAFEILVAQSQQEHVKLAEVARRIVESVTTNPE	not soluble
